Results: the supplement of paper PMC10567573

B1: SNAP91 (parent)
chain: FSTDAFSSPPQGASPVPESSLTAD
B2: CAMK2A (parent)
chain: ILLVGYPPFWDEDQHRLYKQIKAG

Variants of: B1
Assay: protein stability index of a GFP-peptide fusion (GPS, HEK-293T) (PSI 1-6); higher = more stable
Conditions: c terminus: a fixed tail appended
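Note: lentivirally expressed fusions sorted by FACS into six bins by GFP to DsRed ratio, PSI derived from sequencing read proportions per bin multiplied by bin number.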

Protein stability index of substitutions, site by site:
P15: V 3.05, T 3.17, Y 2.44, S 3.03, W 2.37
D24: T 2.89, V 2.18, E 3.02, M 3.19, W 1.87, S 2.78, I 2.92, R 3.49, C 2.83, K 3.18, N 2.62, H 2.42, Q 3.01, Y 2.25, G 2.75, A 3.03, L 3.07, F 2.12
S19: E 3.19, G 2.46, L 2.79, P 3.09, D 3.6, K 2.23, H 3.13, C 3.19, M 2.66, I 2.91, Q 3.1, F 2.58, Y 3.25, W 2.76, V 2.85, T 3.54, A 3.08, N 3.44, R 2.55
A23: E 3.35, F 3.01, K 3.49, M 2.97, G 3.09, Q 3.91, H 2.85, L 3.23, W 2.65, S 2.94, N 3.5, P 2.8, C 2.23, T 3.35, I 3.08, R 2.96, D 3.36, V 2.96
T22: G 3.3, V 3.41, C 3.3, W 2.28, M 3.31, R 2.93, N 3.09, F 2.96, D 3.46, A 2.92, S 3.63, P 2.83, I 3.21, K 2.64, Y 3.21, L 3.63, E 3.86, Q 3.36, H 3.09
L21: Q 3.53, H 3.47, D 3.86, Y 2.81, T 3.45, M 3.11, N 3.39, P 3.33, A 3.44, W 2.92, C 3.38, S 3.58, G 3.14, E 4.1, V 3.39, R 3.11, F 3.1, K 3.12, I 3.01
V16: Q 3.33, E 4, S 2.96, C 2.67, T 2.96, H 3.17, Y 2.96, R 3.22, G 3.66, W 2.21, D 3.12, L 2.83, A 3.6, K 2.96, F 2.7, M 2.68, N 3.31, I 3.29
P17: N 3.52, A 3.79, F 2.86, G 3.66, L 3.23, C 3.01, V 3.25, K 2.9, H 3.85, D 4.14, M 3.13, I 3.04, T 2.83, Y 2.69, S 3.86, E 3.89, W 2.41, R 3.31, Q 3.21
S20: Y 2.93, M 2.98, E 3.49, Q 3.04, N 3.38, R 3.13, A 3.56, H 3.04, G 3.04, P 2.46, W 2.52, K 3.09, V 2.77, L 2.72, I 2.81, F 2.68, C 3.18, T 3.47, D 3.48
E18: I 2.63, G 3.05, D 3.15, K 2.51, F 2.45, L 2.42, W 2.26, P 2.78, R 2.65, C 2.43, N 2.61, S 3.19, V 3.05, H 2.69, A 3.22, Q 3.12, Y 2.74, M 2.83, T 2.81

Variants of: B2
Assay: as above
Conditions: c terminus: a fixed tail appended

Protein stability index: each site, then its substitutions
P7: M 2.9, Y 4.41, G 2.31, V 2.63, H 3.75, I 2.46, F 2.85, Q 1.28, L 2.89, A 1.47, D 1.39, T 2.56, E 1.43, W 2.73
V4: Y 2.13, E 1.53, F 2.76, R 1.47, P 1.73, K 2.23, G 2.24, A 1.07, H 2.23, Q 2.33, C 1.64, I 3.1, D 2.4, S 1.65, T 2.31, L 2.66, N 1.92
P8: T 1.87, F 2.95, Y 1.98, E 2.1, A 1.83, K 2.06, N 4.23, V 2.96, D 1.67, M 1.89, L 1.81, C 4.72, R 3.38
L2: F 1.3, E 2.04, Q 1.42, G 2.4, K 1.63, D 2.12, V 1.67, T 1.86, N 1.52, S 1.75, M 3.1, A 1.6, P 1.86, C 2.11, H 1.72, I 2.57, Y 2.93
I1: M 1.8, R 2.54, V 2.15, E 2.96, C 2.39, S 2.33, K 2.23, G 2.21, Q 1.82, L 2.05, Y 1.73, D 2.1, F 1.72, A 2.25, N 2.03, P 2.27, T 1.58
G5: Y 1.49, N 1.99, D 1.55, K 2.35, W 1.53, M 2.53, A 2.27, Q 2.37, F 3.4, P 3.17, E 3.74, R 2.65, T 2.74, V 3.83, H 2.32
Y6: F 2.73, G 2.23, S 1.43, T 1.77, E 2.1, W 3.13, C 1.62, D 2.12, A 1.67, M 2.36, I 5.07, N 1.93, H 1.28, K 1.39, V 1.45, Q 2.17, P 2.19, L 1.61
L3: V 2.35, T 1.97, D 2.63, N 2.31, M 1.72, H 2.24, K 1.58, E 2.19, A 1.65, G 1.88, F 2.68, I 2.58, Q 1.79, Y 1.74, S 2.4, W 2.4, P 2.58
W10: A 1.73, M 1.18, Q 2.27, F 2.27, D 1.69, N 1.71, K 1.6, G 1.86, P 3.75, H 1.56, E 1.78, L 2.54, I 2.71, C 1.64
F9: H 1.84, A 1.65, L 2.27, M 1.99, W 1.28, R 2.83, C 2.58, Y 1.5, K 2.52, P 2.13, Q 2.38, D 1.77, G 1.67, E 1.44, I 1.62, N 2.86, V 2.37, T 1.84, S 2.19
